How the values were obtained:
[1] = biological target: MPT64 (Mycobacterium tuberculosis); experiment: CAPILIA TB kit; pretreated patient sputum, sample number 1, smear +
[2] = biological target: MPT64 (Mycobacterium tuberculosis); experiment: CAPILIA TB kit; pretreated patient sputum, sample number 2, smear +
[3] = biological target: MPT64 (Mycobacterium tuberculosis); experiment: CAPILIA TB kit; pretreated patient sputum, sample number 3, smear +
[4] = biological target: MPT64 (Mycobacterium tuberculosis); experiment: CAPILIA TB kit; pretreated patient sputum, sample number 4, smear 2+
[5] = biological target: MPT64 (Mycobacterium tuberculosis); experiment: CAPILIA TB kit; pretreated patient sputum, sample number 5, smear 2+
[6] = biological target: MPT64 (Mycobacterium tuberculosis); experiment: CAPILIA TB kit; pretreated patient sputum, sample number 6, smear 3+
[7] = biological target: MPT64 (Mycobacterium tuberculosis); experiment: CAPILIA TB kit; pretreated patient sputum, sample number 7, smear 3+
[8] = biological target: MPT64 (Mycobacterium tuberculosis); experiment: CAPILIA TB kit; pretreated patient sputum, sample number 8, smear 3+

Substance: CAPILIA TB (trade name; manufactured by TAUNS LABORATORIES INC.)
- Absorbance [1]: 0
- Absorbance [2]: 0
- Absorbance [3]: 0
- Absorbance [4]: 0
- Absorbance [5]: 0
- Absorbance [6]: 0
- Absorbance [7]: 0
- Absorbance [8]: 23

Source: patent US20100285506A1
